These results are taken from the nanobody polyreactivity screen of Harvey et al. (2022).

This data set in a line: yeast display, Sf9 membrane polyspecificity reagent, FACS + sequencing; frameworks hold sequencing errors. The method, boiled down: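 Genes from sorted yeast were amplified by colony PCR, read by MiSeq 2 × 250 sequencing and filtered on CDR length. These cells carried a synthetic nanobody library in Saccharomyces cerevisiae BJ5465 and were sorted by FACS into low and high (top ~1%) gates on anti-HA and streptavidin fluorescence. Polyreactivity is labelled according to the gate of origin.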
Consider “QGQLVESGGGLVQAGGSLRLSCAASGSTFLTNTMGWYRHAPGKERELVAAITLRGGRTYYADSVKGRFTISRDNAKNTVYVQMNSLKPEDTAVYYCTARNYYYTSDRDYWGQGTQVTVSS”, for which the “polyreactivity (PSR sort gate)” value was “low polyreactivity”. Turning to “QGQLVESGGGLVQAGGSLRLSCAASGSTLVYNDMGWYRQAPGKEREFVAAISISGTSTYADSVKGRFTISRDNAKNTVYLQMNSLKPEDTAVYWGQGTQVTVSS”, the “polyreactivity (PSR sort gate)” value is “low polyreactivity”. Then “QGQLVESGGGLVQAGGSLRLSCAASGTTFTKYAMGWYRPAPGKERELVATISQSSGRTYYADSVKRRFTISRDNAKNTVYLQMNTLKPEDTAVYYCAARYGYAVYYYGTPVRRYYYWGQGTQVTVSS”, with “high polyreactivity”. As to “QGQLVESGGGLVQAGGSLRLSCAASVRTFYKYAMGWYRQAPGKERELVATITSGGSTNYADSVKGRFTISRDNAKNTVYLQMNSLKPEDTAVYYCAARGHIYKIRDPYWTHDYWGQGTQVTVSS”, the “polyreactivity (PSR sort gate)” value was “low polyreactivity”.

As to “QGQLVESGGGLVQAGGSLRLTCPPSGFTFRTNAMGWYRQAPGKERELVAAISYSGGSTYYADSVKGRFTISRDNAKNTVYFQMNSLKPEDTAVSYCAARAAGSQHDYWGQGSQVTVSS”, the “polyreactivity (PSR sort gate)” value was “high polyreactivity”. Consider “QGQLVESGGGLVQAGGSLSLSCAASGSIFQGYAMGWYRQAPGNEWEFVAAISESDGSTYYADSVKGRCTISRDNAKNTVYLQMNSLKPEDTAVYYCAADKQAYVTDDYWGQGTQVTVSS”, for which the “polyreactivity (PSR sort gate)” value was “high polyreactivity”. Then “QGQLVESGGGLVQAGVSLRLSCAASGSIFGFYGMGWYRQAPGKERELVAAISYRGGNTYYADSVKGRFTSSRDNAKNTVFLQKNSLKPEDTAVYYCNSMWKHGAYRGAYGYWGQGTQVTVSS”, with “high polyreactivity”; and “QGQLVESGGGVVQAGGSLRLSCAASGRIFYRNAMGWYRQAPGKVRELVAAINWSGGSTYYADSVKGRFTISRDNAKNTVYLQMNSLKPEDTAVYYCAARFVRYPSKYDYWGQGTQVTVSS”, with “high polyreactivity”; and “QGQLVESWGGLVQAGGSHRLSCAASGRIFVYYAMGWYRQAPGKERELVAGMTGGGNTYYAYSVKVLFTISRDNAKNTGYLQKNSLKPEDTAVYYCAADPIRYRSRHKYGYWGQGTQVTVSS”, with “low polyreactivity”. Then “QGQLVVSGGGLVQAGGSLRLSCAASGSILTRNAMGWYRQAPGKEMELVAAITGSGGRTYYADSVKGRFTISRDNAKKTFYLQMKSLKPEDTAVYYCATRYGREDYWGQGTQVNVSS”, with “high polyreactivity”; and “QGQRVESGGGLVQAGASLRLSCAASGFIFWEYAMGWSRQAPGKERELVAAISDSGGDTYYADSVKGRFTISRDNAKNTVYLEMHSLKPEDSAVYFCAADVELWVFRGQQYDYWGQGTQVTVSS”, with “low polyreactivity”; and “QGQRVESGGGLVQAGGSLRISCAASGRTVGRYVMGWYRQEPGKERELVARIRGSTTSTYYADSVKGRFTISRDNAKNTVYLQMNSLKAEDTAVYYCAASYSPFASSYSYDYWGQGTQVTVSS”, with “high polyreactivity”. Then “QGQRVESGGGLVQAGGSLRLTCAPSGRTFTGYAMGWYRQATGKARELVAGINWSTGSTYYADSVKGRFTISRDNAKNTVYLQMNSLKPEDTAVYYCAAGYYYYGNGRIVQYEYWGQGTQVTVSS”, with “high polyreactivity”; and “QHQHVESGGGLDQAGGSLRLSCAASGSTFQIYAMGWYRQAPGKERELVAAIDFSGGSTYYADSVKGRFTISRDNAKYTVYLQMNSLKQEDTAVYYCAADLALYSHFGEYEYWGQGTQVTVSS”, with “low polyreactivity”; and “QHQLVESGGGLVQAGGSLRLSCAASGRTFHRNAKGWYRQAPWQERELVAAITGSGGSTYYADSVKGRFTISRDNAKNTVYLQMYSLKPEDTAVYYCATYSYPERTGGQRTHYYWGQGTQVTVSS”, with “high polyreactivity”.

On to “QIQLVESGGGFVQAGGSLRLSCAASGFTFHYYAMGWYSQAPGKERELGAAISWSSGRTYYADSVKGRFTISRDNAQNTVYLQMNSLKPEDTAVYSCAASSYNRGDYWGQGTQVTVSS”, for which the “polyreactivity (PSR sort gate)” value was “low polyreactivity”.
